IntAct's records for PubMed 22430200

B1: E3 ubiquitin-protein ligase RNF31 (Homo sapiens), Q96EP0 (parent)
chain: MPGEEEERAFLVAREELASALRRDSGQAFSLEQLRPLLASSLPLAARYLQLDAARLVRCNAHGEPRNYLNTLSTALNILEKYGRNLLSPQRPRYWRGVKFNNPVFRSTVDAVQGGRDVLRLYGYTEEQPDGLSFPEGQEEPDEHQVATVTLEVLLLRTELSLLLQNTHPRQQALEQLLEDKVEDDMLQLSEFDPLLREIAPGPLTTPSVPGSTPGPCFLCGSAPGTLHCPSCKQALCPACDHLFHGHPSRAHHLRQTLPGVLQGTHLSPSLPASAQPRPQSTSLLALGDSSLSSPNPASAHLPWHCAACAMLNEPWAVLCVACDRPRGCKGLGLGTEGPQGTGGLEPDLARGRWACQSCTFENEAAAVLCSICERPRLAQPPSLVVDSRDAGICLQPLQQGDALLASAQSQVWYCIHCTFCNSSPGWVCVMCNRTSSPIPAQHAPRPYASSLEKGPPKPGPPRRLSAPLPSSCGDPEKQRQDKMREEGLQLVSMIREGEAAGACPEEIFSALQYSGTEVPLQWLRSELPYVLEMVAELAGQQDPGLGAFSCQEARRAWLDRHGNLDEAVEECVRTRRRKVQELQSLGFGPEEGSLQALFQHGGDVSRALTELQRQRLEPFRQRLWDSGPEPTPSWDGPDKQSLVRRLLAVYALPSWGRAELALSLLQETPRNYELGDVVEAVRHSQDRAFLRRLLAQECAVCGWALPHNRMQALTSCECTICPDCFRQHFTIALKEKHITDMVCPACGRPDLTDDTQLLSYFSTLDIQLRESLEPDAYALFHKKLTEGVLMRDPKFLWCAQCSFGFIYEREQLEATCPQCHQTFCVRCKRQWEEQHRGRSCEDFQNWKRMNDPEYQAQGLAMYLQENGIDCPKCKFSYALARGGCMHFHCTQCRHQFCSGCYNAFYAKNKCPEPNCRVKKSLHGHHPRDCLFYLRDWTALRLQKLLQDNNVMFNTEPPAGARAVPGGGCRVIEQKEVPNGLRDEACGKETPAGYAGLCQAHYKEYLVSLINAHSLDPATLYEVEELETATERYLHVRPQPLAGEDPPAYQARLLQKLTEEVPLGQSIPRRRK

Variants of: B1
Settings: with hoil1_human RBCK1, Q9BYM8
Sequence of hoil1_human RBCK1, Q9BYM8 (Q9BYM8 whole entry): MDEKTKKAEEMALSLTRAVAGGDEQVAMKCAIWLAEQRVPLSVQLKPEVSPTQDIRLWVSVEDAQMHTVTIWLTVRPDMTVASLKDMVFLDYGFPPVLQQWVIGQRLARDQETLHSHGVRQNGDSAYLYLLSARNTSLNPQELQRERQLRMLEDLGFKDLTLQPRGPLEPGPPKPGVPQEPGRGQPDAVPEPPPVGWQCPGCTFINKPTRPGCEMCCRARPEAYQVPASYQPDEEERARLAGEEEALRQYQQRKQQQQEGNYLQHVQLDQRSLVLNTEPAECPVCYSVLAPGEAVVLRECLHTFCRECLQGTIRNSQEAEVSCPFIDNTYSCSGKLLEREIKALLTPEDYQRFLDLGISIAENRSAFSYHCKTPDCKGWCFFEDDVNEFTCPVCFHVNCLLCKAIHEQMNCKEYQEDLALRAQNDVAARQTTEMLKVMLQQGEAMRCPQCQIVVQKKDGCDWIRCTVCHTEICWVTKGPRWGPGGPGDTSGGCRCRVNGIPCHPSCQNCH

Variant	effect of a mutation on the interaction
F620A	disrupting interaction

Variants of: B1
Settings: with hoil1_human RBCK1, Q9BYM8
Remark: another data set of the same source

Variant	effect of a mutation on the interaction
F620A	decreasing interaction

Variants of: B1
Settings: with hoil1_human RBCK1, Q9BYM8
Remark: another data set of the same source

Variant	effect of a mutation on the interaction
L617A	disrupting interaction

Variants of: B1
Settings: with hoil1_human RBCK1, Q9BYM8
Remark: another data set of the same source

Variant	effect of a mutation on the interaction
L617A	decreasing interaction
Q613A	decreasing interaction

Variants of: B1
Settings: with hoil1_human RBCK1, Q9BYM8
Remark: another data set of the same source

Variant	effect of a mutation on the interaction
Q613A	disrupting interaction

Variants of: B1
Settings: with hoil1_human RBCK1, Q9BYM8
Remark: another data set of the same source

Variant	effect of a mutation on the interaction
R623A	disrupting interaction
